Earlier results in article PMC5368065.

What was measured:
[1] = target: MLL1 MBM1-MBM2 (Homo sapiens) (UniProt Q03164)
MLL1 (Homo sapiens) = MLL1 (Homo sapiens) (UniProt Q03164)

Kd [1]: 10 nM | Kd (MLL1 (Homo sapiens)): 10 nM
Substance: Menin (from UniProt O00255)
